Laboratory results from CN112159477A (UNIV SHANGHAI MEDICAL & HEALTH SCIENCES, dated 2021).

Key:
[1] = molecular target: T1, rhMICA-His蛋白 (human, UniProt Q29983 24-308); assay: BLI (Fortebio Octet Red96), rhNKG2D-Fc captured on AHC sensor, rhMICA-His 1.23-11.1 nM as analyte
T1 construct: Control protein; also called MICA蛋白; not shown: His tag
T1 sequence (looked up): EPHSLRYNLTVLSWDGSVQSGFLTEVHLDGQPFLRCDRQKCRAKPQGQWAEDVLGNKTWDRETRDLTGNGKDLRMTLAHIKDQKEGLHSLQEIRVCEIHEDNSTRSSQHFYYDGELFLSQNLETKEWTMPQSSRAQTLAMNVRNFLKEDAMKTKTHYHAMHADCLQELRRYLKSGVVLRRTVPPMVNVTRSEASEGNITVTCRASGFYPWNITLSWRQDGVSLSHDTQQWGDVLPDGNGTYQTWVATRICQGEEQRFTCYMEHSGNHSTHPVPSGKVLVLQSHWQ

[2] = molecular target: T1, rhMICA-His蛋白; assay: BLI (Fortebio Octet Red96), rhNKG2D-Fc captured on AHC sensor, rhMICA-His as analyte

B1: rhNKG2D-Fc蛋白 (Fc fusion, human, UniProt P26718 78-216, looked up)
chain: FLNSLFNQEVQIPLTESYCGPCPKNWICYKNNCYQFFDESKNWYESQASCMSQNASLLKVYSKEDQDLLKLVKSYHWMGLVHIPTNGSWQWEDGSILSPNLLTIIEMQKGDCALYASSFKGYIENCSTPNTYICMQRTV
notes: the order of the parts follows the printed name only; not shown: Fc part (captured by an anti-human IgG Fc sensor)
Question: For B1, which Kd [1] is on record?
Answer: Its Kd is 1.26 nM.

Question: And the koff [2]?
Answer: Its koff is 0.0015 s⁻¹.

Question: And the kon [2]?
Answer: Its kon is 1.19e+06 M⁻¹ s⁻¹.
